The text below walks through data of the supplement of paper PMC5998384.

Data set [1] relates to HeLa Kyoto. Description: thermal stability score vs G1/S (z-score of summed log2 fold changes over temperatures); higher = more thermally stable than in G1/S.
For data set [2], the system named is HeLa Kyoto. Description: melting temperature (median over replicates), in situ; higher = more thermally stable.
Data set [3] has as its system HeLa Kyoto. Put plainly: solubility in G1/S (NP-40 vs SDS abundance) (log2 ratio); higher = more soluble. To be noted: cell cycle stage: G1/S.
Data set [4] relates to HeLa Kyoto. Put plainly: solubility change mitosis vs G1/S (difference of NP-40 vs SDS log2 ratios) (log2 ratio difference); higher = more soluble in mitosis.
The mark [5] stands for this setting: cell cycle stage: early G1 (4.5 h after nocodazole release).
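For melting temperature (median over replicates), in situ in this document: HeLa Kyoto cells synchronized by double thymidine or nocodazole block, proteins quantified by TMT10plex mass spectrometry, three independent biological replicates.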
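For solubility change mitosis vs G1/S (difference of NP-40 vs SDS log2 ratios) in this document: synchronized HeLa Kyoto cells (double thymidine block for G1/S, nocodazole release for mitosis), protein amounts in NP-40 versus SDS lysates quantified by mass spectrometry, three biological replicates.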
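For solubility in G1/S (NP-40 vs SDS abundance) in this document: HeLa Kyoto cells arrested at G1/S by double thymidine block, proteins quantified by TMT10plex mass spectrometry in mild NP-40 versus SDS extracts, three biological replicates.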
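For thermal stability score vs G1/S (z-score of summed log2 fold changes over temperatures) in this document: synchronized HeLa Kyoto cells, proteins quantified by TMT10plex mass spectrometry, three biological replicates, mitosis taken 0.5 h after nocodazole release, G1/S directly after double thymidine block.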

Turning to “MLTKFETKSARVKGLSFHPKRPWILTSLHNGVIQLWDYRMCTLIDKFDEHDGPVRGIDFHKQQPLFVSGGDDYKIKVWNYKLRRCLFTLLGHLDYIRTTFFHHEYPWILSASDDQTIRVWNWQSRTCVCVLTGHNHYVMCAQFHPTEDLVVSASLDQTVRVWDISGLRKKNLSPGAVESDVRGITGVDLFGTTDAVVKHVLEGHDRGVNWAAFHPTMPLIVSGADDRQVKIWRMNESKAWEVDTCRGHYNNVSCAVFHPRQELILSNSEDKSIRVWDMSKRTGVQTFRRDHDRFWVLAAHPNLNLFAAGHDGGMIVFKLERERPAYAVHGNMLHYVKDRFLRQLDFNSSKDVAVMQLRSGSKFPVFNMSYNPAENAVLLCTRASNLENSTYDLYTIPKDADSQNPDAPEGKRSSGLTAVWVARNRFAVLDRMHSLLIKNLKNEITKKVQVPNCDEIFYAGTGNLLLRDADSITLFDVQQKRTLASVKISKVKYVIWSADMSHVALLAKHAIVICNRKLDALCNIHENIRVKSGAWDESGVFIYTTSNHIKYAVTTGDHGIIRTLDLPIYVTRVKGNNVYCLDRECRPRVLTIDPTEFKFKLALINRKYDEVLHMVRNAKLVGQSIIAYLQKKGYPEVALHFVKDEKTRFSLALECGNIEIALEAAKALDDKNCWEKLGEVALLQGNHQIVEMCYQRTKNFDKLSFLYLITGNLEKLRKMMKIAEIRKDMSGHYQNALYLGDVSERVRILKNCGQKSLAYLTAATHGLDEEAESLKETFDPEKETIPDIDPNAKLLQPPAPIMPLDTNWPLLTVSKGFFEGTIASKGKGGALAADIDIDTVGTEGWGEDAELQLDEDGFVEATEGLGDDALGKGQEEGGGWDVEEDLELPPELDISPGAAGGAEDGFFVPPTKGTSPTQIWCNNSQLPVDHILAGSFETAMRLLHDQVGVIQFGPYKQLFLQTYARGRTTYQALPCLPSMYGYPNRNWKDAGLKNGVPAVGLKLNDLIQRLQLCYQLTTVGKFEEAVEKFRSILLSVPLLVVDNKQEIAEAQQLITICREYIVGLSVETERKKLPKETLEQQKRICEMAAYFTHSNLQPVHMILVLRTALNLFFKLKNFKTAATFARRLLELGPKPEVAQQTRKILSACEKNPTDAYQLNYDMHNPFDICAASYRPIYRGKPVEKCPLSGACYSPEFKGQICRVTTVTEIGKDVIGLRISPLQFR [COPA]”, the thermal stability score in the data set with HeLa Kyoto [1] (setting [5]) was -0.819; in the data set with HeLa Kyoto [1] (cell cycle stage: mitosis), -0.346. Further, the results for the melting temperature with HeLa Kyoto [2] (cell cycle stage: G1/S) and with HeLa Kyoto [2] (cell cycle stage: mitosis) were 51 °C and 50.3 °C, respectively. The “solubility in G1/S (log2)” value in the data set on HeLa Kyoto [3] was -0.365. Moreover, in the data set with HeLa Kyoto [4], the “solubility change mitosis (log2)” value was -0.16.

With “MLVHLFRVGIRGGPFPGRLLPPLRFQTFSAVRNTWRNGKTGQLHKAEGEYSDGYRSSSLLRAVAHLRSQLWAHLPRAPLAPRWSPSAWCWVGGALLGPMVLSKHPHLCLVALCEAEEAPPASSTPHVVGSRFNWKLFWQFLHPHLLVLGVAVVLALGAALVNVQIPLLLGQLVEVVAKYTRDHVGSFMTESQNLSTHLLILYGVQGLLTFGYLVLLSHVGERMAVDMRRALFSSLLRQDITFFDANKTGQLVSRLTTDVQEFKSSFKLVISQGLRSCTQVAGCLVSLSMLSTRLTLLLMVATPALMGVGTLMGSGLRKLSRQCQEQIARAMGVADEALGNVRTVRAFAMEQREEERYGAELEACRCRAEELGRGIALFQGLSNIAFNCMVLGTLFIGGSLVAGQQLTGGDLMSFLVASQTVQRSMANLSVLFGQVVRGLSAGARVFEYMALNPCIPLSGGCCVPKEQLRGSVTFQNVCFSYPCRPGFEVLKDFTLTLPPGKIVALVGQSGGGKTTVASLLERFYDPTAGVVMLDGRDLRTLDPSWLRGQVVGFISQEPVLFGTTIMENIRFGKLEASDEEVYTAAREANAHEFITSFPEGYNTVVGERGTTLSGGQKQRLAIARALIKQPTVLILDEATSALDAESERVVQEALDRASAGRTVLVIAHRLSTVRGAHCIVVMADGRVWEAGTHEELLKKGGLYAELIRRQALDAPRTAAPPPKKPEGPRSHQHKS [ABCB8]”, the figures for the thermal stability score in the data set with HeLa Kyoto [1] (setting [5]) and with HeLa Kyoto [1] (cell cycle stage: mitosis) were 0.49 and -0.355, respectively. Further, the melting temperature in the data set with HeLa Kyoto [2] (cell cycle stage: G1/S) came to 51.1 °C. The “solubility in G1/S (log2)” value in the data set on HeLa Kyoto [3] was -0.36. In addition, the “solubility change mitosis (log2)” value in the data set with HeLa Kyoto [4] amounted to 0.155.

For “MLVLFETSVGYAIFKVLNEKKLQEVDSLWKEFETPEKANKIVKLKHFEKFQDTAEALAAFTALMEGKINKQLKKVLKKIVKEAHEPLAVADAKLGGVIKEKLNLSCIHSPVVNELMRGIRSQMDGLIPGVEPREMAAMCLGLAHSLSRYRLKFSADKVDTMIVQAISLLDDLDKELNNYIMRCREWYGWHFPELGKIISDNLTYCKCLQKVGDRKNYASAKLSELLPEEVEAEVKAAAEISMGTEVSEEDICNILHLCTQVIEISEYRTQLYEYLQNRMMAIAPNVTVMVGELVGARLIAHAGSLLNLAKHAASTVQILGAEKALFRALKSRRDTPKYGLIYHASLVGQTSPKHKGKISRMLAAKTVLAIRYDAFGEDSSSAMGVENRAKLEARLRTLEDRGIRKISGTGKALAKTEKYEHKSEVKTYDPSGDSTLPTCSKKRKIEQVDKEDEITEKKAKKAKIKVKVEEEEEEKVAEEEETSVKKKKKRGKKKHIKEEPLSEEEPCTSTAIASPEKKKKKKKKRENED [NOP58]”, the values for the thermal stability score with HeLa Kyoto [1] (setting [5]) and in the data set on HeLa Kyoto [1] (cell cycle stage: mitosis) were -0.671 and -1.23, respectively. The results for the melting temperature in the data set on HeLa Kyoto [2] (cell cycle stage: G1/S) and with HeLa Kyoto [2] (cell cycle stage: mitosis) were 52.5 °C and 51.5 °C, respectively. The “solubility in G1/S (log2)” value with HeLa Kyoto [3] is -1.64. In the data set with HeLa Kyoto [4], the “solubility change mitosis (log2)” value was found to be 1.07.

For the sequence “MLWSGCRRFGARLGCLPGGLRVLVQTGHRSLTSCIDPSMGLNEEQKEFQKVAFDFAAREMAPNMAEWDQKELFPVDVMRKAAQLGFGGVYIQTDVGGSGLSRLDTSVIFEALATGCTSTTAYISIHNMCAWMIDSFGNEEQRHKFCPPLCTMEKFASYCLTEPGSGSDAASLLTSAKKQGDHYILNGSKAFISGAGESDIYVVMCRTGGPGPKGISCIVVEKGTPGLSFGKKEKKVGWNSQPTRAVIFEDCAVPVANRIGSEGQGFLIAVRGLNGGRINIASCSLGAAHASVILTRDHLNVRKQFGEPLASNQYLQFTLADMATRLVAARLMVRNAAVALQEERKDAVALCSMAKLFATDECFAICNQALQMHGGYGYLKDYAVQQYVRDSRVHQILEGSNEVMRILISRSLLQE [ACAD8]”, the thermal stability score in the data set with HeLa Kyoto [1] (setting [5]) is -0.89; with HeLa Kyoto [1] (cell cycle stage: mitosis) it was -3.82. Further, the results for the melting temperature in the data set on HeLa Kyoto [2] (cell cycle stage: G1/S) and with HeLa Kyoto [2] (cell cycle stage: mitosis) were 54.9 °C and 55.2 °C, respectively. In addition, the “solubility in G1/S (log2)” value in the data set on HeLa Kyoto [3] was -0.0509. In addition, the “solubility change mitosis (log2)” value in the data set with HeLa Kyoto [4] is -0.0672.
